Bridges are numbered along the chain shown (N, C = ends). Where no end group is shown, it is not given here.
What was measured:
Test in all cases: cell-based or functional assay
[1] = molecular target: recombinant human vasopressin V2 receptor (human, UniProt P30518 1-371)
[2] = molecular target: T1, recombinant human vasopressin V1B receptor (human, UniProt P47901 1-424)
T1 sequence (looked up): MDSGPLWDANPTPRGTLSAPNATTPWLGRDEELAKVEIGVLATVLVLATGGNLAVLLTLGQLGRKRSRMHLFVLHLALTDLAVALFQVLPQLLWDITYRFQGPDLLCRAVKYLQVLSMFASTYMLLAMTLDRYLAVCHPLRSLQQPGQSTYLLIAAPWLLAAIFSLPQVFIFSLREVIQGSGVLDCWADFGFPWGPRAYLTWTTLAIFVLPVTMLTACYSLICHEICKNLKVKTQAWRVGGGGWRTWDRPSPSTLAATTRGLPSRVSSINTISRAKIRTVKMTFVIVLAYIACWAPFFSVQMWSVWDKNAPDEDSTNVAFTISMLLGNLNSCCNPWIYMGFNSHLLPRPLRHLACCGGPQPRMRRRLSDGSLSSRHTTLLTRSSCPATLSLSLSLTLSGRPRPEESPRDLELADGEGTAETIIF

[3] = molecular target: T2, recombinant human oxytocin receptor (human, UniProt P30559 1-389)
T2 sequence (looked up): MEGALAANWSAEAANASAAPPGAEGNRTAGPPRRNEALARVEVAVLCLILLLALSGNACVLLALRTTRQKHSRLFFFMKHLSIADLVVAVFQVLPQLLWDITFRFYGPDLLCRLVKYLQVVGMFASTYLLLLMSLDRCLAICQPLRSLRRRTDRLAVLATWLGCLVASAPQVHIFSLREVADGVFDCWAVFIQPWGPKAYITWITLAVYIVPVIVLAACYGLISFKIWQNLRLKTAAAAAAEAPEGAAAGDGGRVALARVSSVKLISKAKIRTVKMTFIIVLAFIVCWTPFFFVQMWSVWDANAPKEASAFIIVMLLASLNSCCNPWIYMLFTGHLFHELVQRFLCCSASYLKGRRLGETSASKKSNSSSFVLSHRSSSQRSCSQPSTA

B1: Squidtocin (peptide)
peptide: CYFRNCPAG-NH2
modifications: disulfide 1-6; N-terminus assumed
SMILES: C[C@H](NC(=O)[C@@H]1CCCN1C(=O)[C@@H]1CSSC[C@H](N)C(=O)N[C@@H](Cc2ccc(O)cc2)C(=O)N[C@@H](Cc2ccccc2)C(=O)N[C@@H](CCCNC(=N)N)C(=O)N[C@@H](CC(N)=O)C(=O)N1)C(=O)NCC(N)=O
- EC50 of receptor activation (intracellular cAMP accumulation, HTRF, CHO cells) [1]: 42 nM
- EC50 of receptor activation (intracellular calcium increase, calcium dye fluorescence imaging, RBL cells) [2]: 0.94 nM

B2: Pro-sepiatocin (peptide)
peptide: CFFRNCPPG-NH2
modifications: disulfide 1-6; N-terminus assumed
SMILES: N=C(N)NCCC[C@@H]1NC(=O)[C@H](Cc2ccccc2)NC(=O)[C@H](Cc2ccccc2)NC(=O)[C@@H](N)CSSC[C@@H](C(=O)N2CCC[C@H]2C(=O)N2CCC[C@H]2C(=O)NCC(N)=O)NC(=O)[C@H](CC(N)=O)NC1=O
- EC50 of receptor activation (intracellular calcium increase, calcium dye fluorescence imaging, RBL cells) [2]: 214 nM
- IC50 of receptor inhibition (calcium response to 30 nM oxytocin, calcium dye fluorescence imaging, ECV304 cells) [3]: 16000 nM
